# Laboratory results from patent publication US20210363204A1.
# Experiments:
# Assay in all cases: cell-based or functional assay
# [1] = target: human Nav1.6 (human) (UniProt Q9UQD0)
# [2] = target: human Nav1.5 (human) (UniProt Q14524)
# [3] = target: human Nav1.7 (human) (UniProt Q15858)
substance,measurement,setting,value
recombinant Protoxin-II (peptide),"IC50, QPatch electrophysiology assay",[1],6.2e-08 M
same,"ratio of IC50 for Nav1.6 to IC50 for Nav1.7, QPatch",[1],28 fold
recombinant Protoxin-II NV1D12 (peptide),hNav1.5 QPatch IC50,[2],> 1000 nM
wild type Protoxin-II (peptide),"IC50, FLIPR Tetra membrane depolarization assay",[3],4 nM
